Measured values: publication PMC3747146 (PLoS ONE, 2013)

Target: the molecule itself
Test: SEC; Superdex 200 on an ÄKTA FPLC at 4°C, PBS with 10% glycerol (pH 7.4), flow 0.35 ml/min; recombinant proteins released from GST with PreScission

Row | Protein | binding result | stoichiometry N
1 | MALT1(ΔNT), wildtype protease domain and C-terminal extension (aa 333-824) (domain or fragment, UniProt Q9UDY8 333-824, looked up, MALT1 (paracaspase), protease domain and C-terminal extension, aa 333-824; also called ΔNT construct; source: E. coli BL21, GST fusion purified on glutathione-Sepharose, released with PreScission enzyme) QTTDQPLAKDKVALLIGNMNYREHPKLKAPLVDVYELTNLLRQLDFKVVSLLDLTEYEMRNAVDEFLLLLDKGVYGLLYYAGHGYENFGNSFMVPVDAPNPYRSENCLCVQNILKLMQEKETGLNVFLLDMCRKRNDYDDTIPILDALKVTANIVFGYATCQGAEAFEIQHSGLANGIFMKFLKDRLLEDKKITVLLDEVAEDMGKCHLTKGKQALEIRSSLSEKRALTDPIQGTEYSAESLVRNLQWAKAHELPESMCLKFDCGVQIQLGFAAEFSNVMIIYTSIVYKPPEIIMCDAYVTDFPLDLDIDPKDANKGTPEETGSYLVSKDLPKHCLYTRLSSLQKLKEHLVFTVCLSYQYSGLEDTVEDKQEVNVGKPLIAKLDMHRGLGRKTCFQTCLMSNGPYQSSAATSGGAGHYHSLQDPFHGVYHSHPGNPSNVTPADSCHCSRTPDAFISSFAHHASCHFSRSNVPVETTDEIPFSFSDRLRISEK | binds | –
2 | MALT1(ΔNT) E549A, protease domain and C-terminal extension (aa 333-824) (domain or fragment, UniProt Q9UDY8 333-824, looked up, MALT1 (paracaspase), protease domain and C-terminal extension, aa 333-824, with E549A; source: E. coli BL21, GST fusion purified on glutathione-Sepharose, released with PreScission enzyme) QTTDQPLAKDKVALLIGNMNYREHPKLKAPLVDVYELTNLLRQLDFKVVSLLDLTEYEMRNAVDEFLLLLDKGVYGLLYYAGHGYENFGNSFMVPVDAPNPYRSENCLCVQNILKLMQEKETGLNVFLLDMCRKRNDYDDTIPILDALKVTANIVFGYATCQGAEAFEIQHSGLANGIFMKFLKDRLLEDKKITVLLDEVAEDMGKCHLTKGKQALAIRSSLSEKRALTDPIQGTEYSAESLVRNLQWAKAHELPESMCLKFDCGVQIQLGFAAEFSNVMIIYTSIVYKPPEIIMCDAYVTDFPLDLDIDPKDANKGTPEETGSYLVSKDLPKHCLYTRLSSLQKLKEHLVFTVCLSYQYSGLEDTVEDKQEVNVGKPLIAKLDMHRGLGRKTCFQTCLMSNGPYQSSAATSGGAGHYHSLQDPFHGVYHSHPGNPSNVTPADSCHCSRTPDAFISSFAHHASCHFSRSNVPVETTDEIPFSFSDRLRISEK | binds | –
3 | MALT1(Casp-like), wildtype isolated protease domain (aa 333-566) (domain or fragment, UniProt Q9UDY8 333-566, looked up, MALT1 (paracaspase), isolated protease (caspase-like) domain, aa 333-566; also called Casp-like construct; MALT1 caspase-like domain; source: E. coli BL21, GST fusion purified on glutathione-Sepharose, released with PreScission enzyme) QTTDQPLAKDKVALLIGNMNYREHPKLKAPLVDVYELTNLLRQLDFKVVSLLDLTEYEMRNAVDEFLLLLDKGVYGLLYYAGHGYENFGNSFMVPVDAPNPYRSENCLCVQNILKLMQEKETGLNVFLLDMCRKRNDYDDTIPILDALKVTANIVFGYATCQGAEAFEIQHSGLANGIFMKFLKDRLLEDKKITVLLDEVAEDMGKCHLTKGKQALEIRSSLSEKRALTDPIQG | – | 2
